Experiments:
[1] = target: T1, human IL-33 (R&D Systems, # 3625-IL-010/CF) (human, UniProt O95760 112-270, biotinylated in the blocking ELISA of Example 3 (sites not given)); assay: cell-based or functional assay
T1 sequence (looked up): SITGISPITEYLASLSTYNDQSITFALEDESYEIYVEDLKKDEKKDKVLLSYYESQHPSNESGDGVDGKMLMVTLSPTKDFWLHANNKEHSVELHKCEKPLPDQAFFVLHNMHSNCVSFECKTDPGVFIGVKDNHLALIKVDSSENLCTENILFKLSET

[2] = target: T2, monkey IL-33 expressed with C-terminal hexahistidine tag (MfIL-33-6His) (cynomolgus monkey (M. fascicularis)); assay: cell-based or functional assay
T2 chain: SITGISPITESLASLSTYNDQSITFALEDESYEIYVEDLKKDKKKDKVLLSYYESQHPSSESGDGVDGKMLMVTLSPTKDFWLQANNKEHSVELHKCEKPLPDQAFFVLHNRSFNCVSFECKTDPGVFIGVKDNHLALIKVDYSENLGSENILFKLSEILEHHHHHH

[3] = target: T3, mouse IL-33 (R&D Systems, # 3626-ML-010/CF) (mouse, UniProt Q8BVZ5 109-266); assay: SPR (Biacore T-200), 37 C; Fc fusion captured by anti-Fc antibody, mouse IL-33 injected
T3 construct: Commercial protein; also called mIL-33; mIL33
T3 sequence (looked up): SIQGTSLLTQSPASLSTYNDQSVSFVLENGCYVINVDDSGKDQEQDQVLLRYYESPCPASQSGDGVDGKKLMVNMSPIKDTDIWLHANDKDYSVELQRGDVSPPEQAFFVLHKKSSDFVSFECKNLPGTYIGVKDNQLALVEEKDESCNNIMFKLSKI
Experimental: (§1) The Biacore sensor surface was first derivatized by amine coupling a polyclonal rabbit anti-mouse antibody (GE, # BR-1008-38) or with a monoclonal mouse anti-human Fc antibody (GE, # BR-1008-39) to capture IL-33 Trap and receptor proteins with a C-terminal mouse IgG2a Fc tag or a C-terminal human IgG1 Fc tag, respectively. Kinetic experiments were carried out in 0.01 M HEPES pH 7.4, 0.15 M NaCl, 3 mM EDTA, and 0.005% v/v Surfactant Tween-20 (HBST running buffer). Different concentrations of human IL-33, mouse IL-33 or MfIL-33-6His prepared in HBST running buffer (ranging from 60 nM to 27.4 pM, 3-fold dilutions, for Trap proteins and ranging from 60 nM to 0.25 nM, 3-fold dilutions, for ST2 receptor proteins) were injected over the captured IL-33 Trap and receptor protein surfaces at a flow rate of 50 μL/minute. Association of different IL-33 proteins to the different capture surfaces was monitored for 7 minutes for Trap proteins or 4 minutes for ST2 receptor proteins and their dissociation in HBST running buffer was monitored for 14 minutes for Trap proteins or 8 minutes for ST2 receptor proteins. Kinetic association (ka) and dissociation (kd) rate constants were determined by fitting the real-time binding sensorgrams to a 1:1 binding model using Scrubber 2.0c curve-fitting software. Binding dissociation equilibrium constants (KD) and dissociative half-lives (t½) were calculated from the kinetic rate constants as: […]

[4] = target: T1, human IL-33 (R&D Systems, # …); assay: competition ELISA; antagonist pre-mixed with 20 pM biotin-hIL-33, binding to plate-coated human ST2-Fc; highest concentration tested
Experimental: The ability of exemplary IL-33 antagonists of the invention to block human IL-33 (hIL-33) binding to the human ST2 receptor was measured using a competition sandwich ELISA. A portion of human ST2 protein ecto domain that was expressed with a C-terminal mouse Fc tag (SEQ ID NO:2) was coated at a concentration of 1 μg/mL in PBS buffer on a 96-well microtiter plate overnight at 4° C. […] Biotinylated hIL-33 protein (R&D systems, #3625-IL/CF) (biot-hIL-33) was added to achieve a constant final concentration of 20 pM to serial dilutions of IL-33 antagonists ranging from 0 to 100 nM. The mixture was incubated for 1 hour at room temperature (RT) before transfer to the hST2-hFc coated microtiter plates. After incubation for 1 hour at RT, the wells were then washed, and plate-bound biot-hIL-33 was detected with HRP-conjugated streptavidin (Thermo Scientific, # N200). All samples were developed with a TMB solution (BD biosciences, # 51-2607KC) to produce a colorimetric reaction and then quenched by acidification with 1M sulfuric acid before measuring absorbance at 450 nm on a Victor X5 plate reader (PerkinElmer). Data analysis was performed using a sigmoidal dose-response model within Prism™ software. […] Maximum blocking values represent the ability of the antagonists to block IL-33 binding relative to baseline. The absorbance measured at the constant amount of hIL-33 on the dose curve was defined as 0% blocking and the absorbance with no added IL-33 was defined as 100% blocking. The absorbance values of the wells containing the highest concentration tested for each antagonist were used to determine the maximum blocking percent.

[5] = target: T1, human IL-33 (R&D Systems, # …); assay: SPR (Biacore T-200), 25 C; Fc fusion captured by anti-Fc antibody, IL-33 injected
Experimental: as §1

[6] = target: T1, human IL-33 (R&D Systems, # …); assay: cell-based or functional assay; remark: listed apart in the source

B1: hST2-hIL1RAcP-mFc (Fc fusion)
chain: KFSKQSWGLENEALIVRCPRQGKPSYTVDWYYSQTNKSIPTQERNRVFASGQLLKFLPAAVADSGIYTCIVRSPTFNRTGYANVTIYKKQSDCNVPDYLMYSTVSGSEKNSKIYCPTIDLYNWTAPLEWFKNCQALQGSRYRAHKSFLVIDNVMTEDAGDYTCKFIHNENGANYSVTATRSFTVKDEQGFSLFPVIGAPAQNEIKEVEIGKNANLTCSACFGKGTQFLAAVLWQLNGTKITDFGEPRIQQEEGQNQSFSNGLACLDMVLRIADVKEEDLLLQYDCLALNLHGLRRHTVRLSRKNPIDHHSSERCDDWGLDTMRQIQVFEDEPARIKCPLFEHFLKFNYSTAHSAGLTLIWYWTRQDRDLEEPINFRLPENRISKEKDVLWFRPTLLNDTGNYTCMLRNTTYCSKVAFPLEVVQKDSCFNSPMKLPVHKLYIEYGIQRITCPNVDGYFPSSVKPTITWYMGCYKIQNFNNVIPEGMNLSFLIALISNNGNYTCVVTYPENGRTFHLTRTLTVKVVGSPKNAVPPVIHSPNDHVVYEKEPGEELLIPCTVYFSFLMDSRNEVWWTIDGKKPDDITIDVTINESISHSRTEDETRTQILSIKKVTSEDLKRSYVCHARSAKGEVAKAAKVKQKVPAPRYTVESGEPRGPTIKPCPPCKCPAPNLLGGPSVFIFPPKIKDVLMISLSPIVTCVVVDVSEDDPDVQISWFVNNVEVHTAQTQTHREDYNSTLRVVSALPIQHQDWMSGKEFKCKVNNKDLPAPIERTISKPKGSVRAPQVYVLPPPEEEMTKKQVTLTCMVTDFMPEDIYVEWTNNGKTELNYKNTEPVLDSDGSYFMYSKLRVEKKNWVERNSYSCSVVHEGLHNHHTTKSFSRTPGK
notes: also called third IL-33 antagonist; human IL-33 Trap
- IC50 (M), inhibition of 5 pM human IL-33 activation of HEK293/hST2/NFkB-luciferase cells [1]: 1.3e-12 M
- IC50 (M), inhibition of 20 pM human IL-33 activation of HEK293/hST2/NFkB-luciferase cells [1]: 1.3e-11 M
- IC50 (M), inhibition of 3 pM monkey IL-33 activation of HEK293/hST2/NFkB-luciferase cells [2]: 4.7e-11 M
- IC50 (M), inhibition of 5 pM monkey IL-33 activation of HEK293/hST2/NFkB-luciferase cells [2]: 1.3e-12 M
- 60 nM Mouse IL-33 Bound (RU) [3]: 21 RU
- Kd [3]: 0.0933 nM
- koff [3]: 0.000317 s⁻¹
- kon [3]: 3.39e+06 M⁻¹ s⁻¹
- t1/2 [3]: 36 min
- % Maximum blocking [4]: 97%
- 60 nM Human IL-33 Bound (RU) [5]: 28 RU
- Kd [5]: 3.29 pM
- koff [5]: 6.32e-05 s⁻¹
- kon [5]: 1.92e+07 M⁻¹ s⁻¹
- t1/2 [5]: 183 min
- IC50 (M), blocking of IL-33 induced activation of human basophils (CD203c), donor 655675 [6]: 1.9e-11 M
- IC50 (M), blocking of IL-33 induced activation of human basophils (CD203c), donor 655676 [6]: 1.51e-11 M
- IC50 (M), blocking of IL-33 induced activation of human basophils (CD203c), donor 655685 [6]: 2.3e-11 M
- IC50 (M), blocking of IL-33 induced activation of human basophils (CD203c), donor 655686 [6]: 2.09e-11 M
- IC50 (M), blocking of IL-33 induced activation of human basophils (CD203c), donor 698846 [6]: 3.6e-11 M
- IC50 (M), blocking of IL-33 induced activation of human basophils (CD203c), donor 698847 [6]: 1.11e-11 M
